According to PMC2615687 (2008):
Each block holds one binder with its values, some of them ahead of it.

Key:
[1] = target: T1, myelin oligodendroglial glycoprotein (MOG) peptide on I-Ab (mouse); assay: cytokine release
T1 peptide: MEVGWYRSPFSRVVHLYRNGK

[2] = target: T1, myelin oligodendroglial glycoprotein …; assay: in vivo

- binding result [1]: recognises
B1: 2MOG10 (TCR)
alpha TRAV14-2*01 TRAJ21*01 CDR3: CAAASRIYNVLYF
beta TRBV5*01 TRBJ2-5*01 CDR3: CASNGLGEEDTQYF

- binding result [2]: recognises
B2: 1MOG23 (TCR)
alpha TRAV12D-2*02 TRAJ18*01 CDR3: CALSDRGSALGRLHF
beta TRBV19*01 TRBJ2-3*01 CDR3: CASSIADSSAETLYF

- binding result [1]: recognises
B3: 1MOG9 (TCR)
alpha TRAV12D-3*01 TRAJ17*01 CDR3: CALSAANSAGNKLTF
beta TRBV13-2*01 TRBJ2-4*01 CDR3: CASGDWGGEDTLYF
